For three proteins, Km and kcat results are on record in article PMC4340053, “The DEAH-box Helicase Dhr1 Dissociates U3 from the Pre-rRNA to Promote Formation of the Central Pseudoknot” (PLoS Biology, 2015).

Substrate in this data set: Nc1ncnc2c1ncn2[C@@H]1O[C@H](COP(=O)(O)OP(=O)(O)OP(=O)(O)O)[C@@H](O)[C@H]1O
In words: purified protein. The settings on record: poly(A) RNA present, equimolar MgCl2, pH 8.0, room temperature. The format is biochemical, Saccharomyces cerevisiae.

B1: Dhr1 (Ecm16) (Saccharomyces cerevisiae S288C) (protein)
chain: MGTYRKRFNEKARSGHMAKLKELKRIRNKQFTRQDENDERVENPDSAPAESSTTEPNANAEILEPLTEEEKKMKKRKLQELFTPKESKVSRLKKKRLDKFIEHQLKREERKTIIGKLQDYKIDTSLLTSSKRLGEGRQTKKEEFKEALSLERQGRGNEQTNEILYEEYEPKVWDEYGEGGSSEDDDGEDDFEASFGSMPKPTDNEEKKSSGFIDHRPAKFGGSGLSFGFSNIKVINKESKTPKKKYNWRQRVEMEELKKHGKEDEMDFDTTSEDDDEEEDQEEEDKMHPSENPLEEVESADSETGSEKFDQNDVANEFKDWANQEIKKLEGRDQELVTPTLNIDYKPIIRKEDLDDGLQEAYVPINENSTRKAFYVEVSRSDEIQKARIQLPVFGEEHKIMEAIHHNDVVIICGETGSGKTTQVPQFLYEAGFGAEDSPDYPGMVGITQPRRVAAVSMAERVANELGDHGHKVGYQIRFDSTAKEDTKVKFMTDGVLLREMMHDFKLTKYSSIIIDEAHERNINTDILIGMLSRCVRLRAKLHKENPIEHKKLKLIIMSATLRVSDFSENKTLFPIAPPVLQVDARQFPVSIHFNRRTAFNYTDEAFRKTCKIHQKLPPGAILVFLTGQQEITHMVKRLRKEFPFKKNSKYNKDLETPVSKMGINSKTTDLEAEDIDFSVQVIDQDKFKSAIRYEEDEGNSGNGEDEEDEEEEGFEEVLTEGQTANDPLYVLPLYSLLPTKEQMRVFQKPPQGSRLCIVATNVAETSLTIPGVRYVVDSGRSKERKYNESNGVQSFEVGWVSKASANQRSGRAGRTGPGHCYRLYSSAVFEHDFEQFSKPEILRMPVESIVLQMKSMAIHNIINFPFPTPPDRVALSKAIQLLQYLGALDNKEMITEDGKKMSLFPLSPRFSKMLLVSDEKACLPYIVAIVSALSVGDPFINEFELGINEISRKPNPDENLDDKIREHDESTPGMDPELKKELRSKFYKSRSQFSKLDKFSDVFRLLSVVSAMDYVPKEQKEIFMKKNFLRGKLMEEIVKLRKQLMYIIKSNTSKENIAVVIRNEDLKSDIPSVIQIKLLKQMICAGFVDHVAVRADVLFPDDAKITNRTSIINIPYIPVLATRTPNIEDCFVYIHPTSILNNLGEMPPKYMLYYSLHLGGNNKTRMNTLCDIASTPLANIARKGLLLTYSKPLTGQGLKTVNLSPTERYCYVVPRFGSTVDNDLKIGWDLNPIAVHQKKQKGQWTVIKFITRKGFQTITGEEKEKK
notes: full-length with C-terminal Leu-Glu-6xHis (pAJ2312), tag kept; expressed in E. coli BL21 Star (DE3), RNase-treated, Ni-NTA and SP HiTrap
Turning to B1, the Michaelis constant (Km) turned out to be 106 µM and the kcat is 0.217 s⁻¹.

B2: Dhr1 (Ecm16) (Saccharomyces cerevisiae S288C; D516A/E517A) (protein)
chain: MGTYRKRFNEKARSGHMAKLKELKRIRNKQFTRQDENDERVENPDSAPAESSTTEPNANAEILEPLTEEEKKMKKRKLQELFTPKESKVSRLKKKRLDKFIEHQLKREERKTIIGKLQDYKIDTSLLTSSKRLGEGRQTKKEEFKEALSLERQGRGNEQTNEILYEEYEPKVWDEYGEGGSSEDDDGEDDFEASFGSMPKPTDNEEKKSSGFIDHRPAKFGGSGLSFGFSNIKVINKESKTPKKKYNWRQRVEMEELKKHGKEDEMDFDTTSEDDDEEEDQEEEDKMHPSENPLEEVESADSETGSEKFDQNDVANEFKDWANQEIKKLEGRDQELVTPTLNIDYKPIIRKEDLDDGLQEAYVPINENSTRKAFYVEVSRSDEIQKARIQLPVFGEEHKIMEAIHHNDVVIICGETGSGKTTQVPQFLYEAGFGAEDSPDYPGMVGITQPRRVAAVSMAERVANELGDHGHKVGYQIRFDSTAKEDTKVKFMTDGVLLREMMHDFKLTKYSSIIIAAAHERNINTDILIGMLSRCVRLRAKLHKENPIEHKKLKLIIMSATLRVSDFSENKTLFPIAPPVLQVDARQFPVSIHFNRRTAFNYTDEAFRKTCKIHQKLPPGAILVFLTGQQEITHMVKRLRKEFPFKKNSKYNKDLETPVSKMGINSKTTDLEAEDIDFSVQVIDQDKFKSAIRYEEDEGNSGNGEDEEDEEEEGFEEVLTEGQTANDPLYVLPLYSLLPTKEQMRVFQKPPQGSRLCIVATNVAETSLTIPGVRYVVDSGRSKERKYNESNGVQSFEVGWVSKASANQRSGRAGRTGPGHCYRLYSSAVFEHDFEQFSKPEILRMPVESIVLQMKSMAIHNIINFPFPTPPDRVALSKAIQLLQYLGALDNKEMITEDGKKMSLFPLSPRFSKMLLVSDEKACLPYIVAIVSALSVGDPFINEFELGINEISRKPNPDENLDDKIREHDESTPGMDPELKKELRSKFYKSRSQFSKLDKFSDVFRLLSVVSAMDYVPKEQKEIFMKKNFLRGKLMEEIVKLRKQLMYIIKSNTSKENIAVVIRNEDLKSDIPSVIQIKLLKQMICAGFVDHVAVRADVLFPDDAKITNRTSIINIPYIPVLATRTPNIEDCFVYIHPTSILNNLGEMPPKYMLYYSLHLGGNNKTRMNTLCDIASTPLANIARKGLLLTYSKPLTGQGLKTVNLSPTERYCYVVPRFGSTVDNDLKIGWDLNPIAVHQKKQKGQWTVIKFITRKGFQTITGEEKEKK
notes: as for B1
As for B2, the Km was 136 µM and the kcat is 0.03 s⁻¹.

B3: Dhr1 (Ecm16) (Saccharomyces cerevisiae S288C; K420A) (protein)
chain: MGTYRKRFNEKARSGHMAKLKELKRIRNKQFTRQDENDERVENPDSAPAESSTTEPNANAEILEPLTEEEKKMKKRKLQELFTPKESKVSRLKKKRLDKFIEHQLKREERKTIIGKLQDYKIDTSLLTSSKRLGEGRQTKKEEFKEALSLERQGRGNEQTNEILYEEYEPKVWDEYGEGGSSEDDDGEDDFEASFGSMPKPTDNEEKKSSGFIDHRPAKFGGSGLSFGFSNIKVINKESKTPKKKYNWRQRVEMEELKKHGKEDEMDFDTTSEDDDEEEDQEEEDKMHPSENPLEEVESADSETGSEKFDQNDVANEFKDWANQEIKKLEGRDQELVTPTLNIDYKPIIRKEDLDDGLQEAYVPINENSTRKAFYVEVSRSDEIQKARIQLPVFGEEHKIMEAIHHNDVVIICGETGSGATTQVPQFLYEAGFGAEDSPDYPGMVGITQPRRVAAVSMAERVANELGDHGHKVGYQIRFDSTAKEDTKVKFMTDGVLLREMMHDFKLTKYSSIIIDEAHERNINTDILIGMLSRCVRLRAKLHKENPIEHKKLKLIIMSATLRVSDFSENKTLFPIAPPVLQVDARQFPVSIHFNRRTAFNYTDEAFRKTCKIHQKLPPGAILVFLTGQQEITHMVKRLRKEFPFKKNSKYNKDLETPVSKMGINSKTTDLEAEDIDFSVQVIDQDKFKSAIRYEEDEGNSGNGEDEEDEEEEGFEEVLTEGQTANDPLYVLPLYSLLPTKEQMRVFQKPPQGSRLCIVATNVAETSLTIPGVRYVVDSGRSKERKYNESNGVQSFEVGWVSKASANQRSGRAGRTGPGHCYRLYSSAVFEHDFEQFSKPEILRMPVESIVLQMKSMAIHNIINFPFPTPPDRVALSKAIQLLQYLGALDNKEMITEDGKKMSLFPLSPRFSKMLLVSDEKACLPYIVAIVSALSVGDPFINEFELGINEISRKPNPDENLDDKIREHDESTPGMDPELKKELRSKFYKSRSQFSKLDKFSDVFRLLSVVSAMDYVPKEQKEIFMKKNFLRGKLMEEIVKLRKQLMYIIKSNTSKENIAVVIRNEDLKSDIPSVIQIKLLKQMICAGFVDHVAVRADVLFPDDAKITNRTSIINIPYIPVLATRTPNIEDCFVYIHPTSILNNLGEMPPKYMLYYSLHLGGNNKTRMNTLCDIASTPLANIARKGLLLTYSKPLTGQGLKTVNLSPTERYCYVVPRFGSTVDNDLKIGWDLNPIAVHQKKQKGQWTVIKFITRKGFQTITGEEKEKK
notes: as for B1
For B3, the Km was found to be 1000 µM and the kcat turned out to be 0.05 s⁻¹.
